What follows are sequences tested on Escherichia coli TOP10 (assay: shrunken log2 fold change of peptide-encoding DNA abundance (4.5 h post-induction vs induction); higher = less antimicrobial activity (less host growth inhibition)). Settings: time post-induction: 4.5 h; library: site-saturation at positions 5, 18, 19, 20.
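Note: peptides expressed intracellularly from a pBAD plasmid library in pooled LB shake-flask culture, induced with 0.3% L-arabinose, DNA abundance read by NGS, three biological replicates, DESeq2 with apeglm shrinkage.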

| Sequence | shrunken log2 fold change |
| --- | --- |
| RRIRRRPPRLPRPRPRPVIAPRP | 0.654 |
| RRIRIRPPRLPRPRPRPGPYPRP | -0.376 |
| RRIRRRPPRLPRPRPRPGNYPRP | -0.0441 |
| RRIRFRPPRLPRPRPRPQNYPRP | -0.502 |
| RRIRLRPPRLPRPRPRPYTNPRP | -0.6 |
| RRIRVRPPRLPRPRPRPGYQPRP | -0.00841 |
| RRIRRRPPRLPRPRPRPCLFPRP | -0.0047 |
| RRIRQRPPRLPRPRPRPEIPPRP | -0.0704 |
| RRIRRRPPRLPRPRPRPPMNPRP | 0.172 |
| RRIRCRPPRLPRPRPRPGVFPRP | -0.00263 |
| RRIRGRPPRLPRPRPRPRVDPRP | 1.57 |
| RRIRNRPPRLPRPRPRPCWFPRP | -0.00192 |
| RRIRMRPPRLPRPRPRPLCIPRP | 0.21 |
| RRIRWRPPRLPRPRPRPTMQPRP | 0.13 |
| RRIRQRPPRLPRPRPRPPGSPRP | 0.111 |
| RRIRKRPPRLPRPRPRPWVWPRP | 0.445 |
| RRIRRRPPRLPRPRPRPNRFPRP | 0.156 |
| RRIRWRPPRLPRPRPRPIRNPRP | -0.334 |
| RRIRHRPPRLPRPRPRPSQSPRP | -0.22 |
| RRIRGRPPRLPRPRPRPDREPRP | 0.34 |
| RRIRRRPPRLPRPRPRPMHGPRP | 0.144 |
| RRIRKRPPRLPRPRPRPPFRPRP | 0.566 |

| Sequence | shrunken log2 fold change |
| --- | --- |
| RRIRNRPPRLPRPRPRPTVPPRP | -0.233 |
| RRIRNRPPRLPRPRPRPQFPPRP | -0.148 |
| RRIRDRPPRLPRPRPRPKMVPRP | 0.223 |
| RRIRDRPPRLPRPRPRPKVQPRP | 0.116 |
| RRIRCRPPRLPRPRPRPDFMPRP | -0.163 |
| RRIRERPPRLPRPRPRPQKKPRP | 0.0196 |
| RRIRPRPPRLPRPRPRPSKEPRP | -0.374 |
| RRIRERPPRLPRPRPRPYLFPRP | -0.137 |
| RRIRQRPPRLPRPRPRPCESPRP | -0.0107 |
| RRIRERPPRLPRPRPRPVHPPRP | -0.00739 |
| RRIRVRPPRLPRPRPRPTFTPRP | -0.073 |
| RRIRARPPRLPRPRPRPSLVPRP | 0.413 |
| RRIRLRPPRLPRPRPRPNIHPRP | -0.621 |
| RRIRARPPRLPRPRPRPNENPRP | 0.177 |
| RRIRLRPPRLPRPRPRPAIPPRP | -0.0222 |
| RRIRFRPPRLPRPRPRPWEQPRP | -0.00193 |
| RRIRQRPPRLPRPRPRPPEQPRP | 0.00242 |
| RRIRWRPPRLPRPRPRPHLNPRP | 0.0153 |
| RRIRCRPPRLPRPRPRPHKLPRP | -0.436 |
| RRIRCRPPRLPRPRPRPWLQPRP | -0.199 |
| RRIRVRPPRLPRPRPRPFTHPRP | -0.222 |
| RRIRYRPPRLPRPRPRPFPAPRP | -0.467 |

| Sequence | shrunken log2 fold change |
| --- | --- |
| RRIRSRPPRLPRPRPRPRVRPRP | 0.217 |
| RRIRCRPPRLPRPRPRPELYPRP | 0.221 |
| RRIRCRPPRLPRPRPRPRSDPRP | -0.101 |
| RRIRRRPPRLPRPRPRPCFIPRP | -0.127 |
| RRIRIRPPRLPRPRPRPSVCPRP | -0.294 |
| RRIRGRPPRLPRPRPRPCLGPRP | 0.0741 |
| RRIRTRPPRLPRPRPRPFHGPRP | -0.0212 |
| RRIRNRPPRLPRPRPRPLKKPRP | -0.0418 |
| RRIRSRPPRLPRPRPRPVLFPRP | -0.0544 |
| RRIRFRPPRLPRPRPRPIVGPRP | -0.0769 |
| RRIRDRPPRLPRPRPRPDHCPRP | -0.00174 |
| RRIRTRPPRLPRPRPRPLKDPRP | 0.0122 |
| RRIRARPPRLPRPRPRPVMHPRP | 0.191 |
| RRIRCRPPRLPRPRPRPKATPRP | 0.0985 |
| RRIRMRPPRLPRPRPRPDIVPRP | 0.0138 |
| RRIRKRPPRLPRPRPRPMMGPRP | -0.0567 |
| RRIRWRPPRLPRPRPRPNSCPRP | 0.0578 |
| RRIRHRPPRLPRPRPRPYLYPRP | -0.482 |
| RRIRIRPPRLPRPRPRPCKWPRP | -0.38 |
| RRIRGRPPRLPRPRPRPCTYPRP | 0.00971 |
| RRIRHRPPRLPRPRPRPWHHPRP | 0.0223 |
| RRIRARPPRLPRPRPRPYTHPRP | -0.373 |

| Sequence | shrunken log2 fold change |
| --- | --- |
| RRIRSRPPRLPRPRPRPPFHPRP | -0.0308 |
| RRIRWRPPRLPRPRPRPVDGPRP | 0.0816 |
| RRIRSRPPRLPRPRPRPIKFPRP | -0.0229 |
| RRIRVRPPRLPRPRPRPWSDPRP | -0.138 |
| RRIRNRPPRLPRPRPRPMTWPRP | 0.0964 |
| RRIRRRPPRLPRPRPRPHVQPRP | -0.143 |
| RRIRGRPPRLPRPRPRPIRRPRP | 0.346 |
| RRIRWRPPRLPRPRPRPENPPRP | -0.0117 |
| RRIRYRPPRLPRPRPRPIRFPRP | -0.0383 |
| RRIRPRPPRLPRPRPRPAIDPRP | 1.19 |
| RRIRCRPPRLPRPRPRPPTFPRP | -0.331 |
| RRIRNRPPRLPRPRPRPLAMPRP | -0.21 |
| RRIRIRPPRLPRPRPRPKSIPRP | -0.14 |
| RRIRYRPPRLPRPRPRPMAFPRP | -0.557 |
| RRIRERPPRLPRPRPRPFVQPRP | -0.386 |
| RRIRQRPPRLPRPRPRPKGQPRP | -0.0264 |
| RRIRDRPPRLPRPRPRPQLRPRP | -0.0942 |
| RRIRTRPPRLPRPRPRPNRNPRP | -0.544 |
| RRIRKRPPRLPRPRPRPDQGPRP | -0.0154 |
| RRIRNRPPRLPRPRPRPWWPPRP | -0.218 |
| RRIRIRPPRLPRPRPRPVNTPRP | -1.06 |
| RRIRVRPPRLPRPRPRPCYNPRP | -0.11 |

| Sequence | shrunken log2 fold change |
| --- | --- |
| RRIRWRPPRLPRPRPRPMTAPRP | 0.473 |
| RRIRNRPPRLPRPRPRPWQHPRP | 0.178 |
| RRIRMRPPRLPRPRPRPRKFPRP | 0.247 |
| RRIRTRPPRLPRPRPRPLALPRP | -0.0853 |
| RRIRYRPPRLPRPRPRPPERPRP | 0.251 |
| RRIRCRPPRLPRPRPRPCMGPRP | -0.241 |
| RRIRPRPPRLPRPRPRPDDQPRP | 0.0917 |
| RRIRFRPPRLPRPRPRPVAEPRP | 0.256 |
| RRIRTRPPRLPRPRPRPHEEPRP | 0.0127 |
| RRIRWRPPRLPRPRPRPPCGPRP | 0.255 |
| RRIRWRPPRLPRPRPRPVYIPRP | -0.0308 |
| RRIRGRPPRLPRPRPRPDSLPRP | -0.0456 |
| RRIRYRPPRLPRPRPRPGSAPRP | -0.24 |
| RRIRTRPPRLPRPRPRPLPQPRP | 0.165 |
| RRIRHRPPRLPRPRPRPKRFPRP | 0.0543 |
| RRIRPRPPRLPRPRPRPFGFPRP | 0.0716 |
| RRIRMRPPRLPRPRPRPEMKPRP | 2.5 |
| RRIRARPPRLPRPRPRPISPPRP | -0.141 |
| RRIRRRPPRLPRPRPRPKIPPRP | 0.0427 |
| RRIRARPPRLPRPRPRPMLLPRP | -0.0981 |
| RRIRTRPPRLPRPRPRPNAPPRP | -0.0472 |
